Results reported in patent US20140087995A1 (published 2014).
Numbered stars: 1 amine (or outer) side, 2 acyl side, 3 side chain; on linkers, the order of the positions; unused ones are H or OH. Bridge positions count the residues as written; N and C are the ends. Side chains are listed from the residue outwards. Ends that are not written are not given here. * marks the point of attachment. C20 diacid = O=C(O)CCCCCCCCCCCCCCCCCCC(=O)*; γGlu = O=C(O)[C@H](CCC(=O)[*:2])N[*:1]

Tests used:
[1] = target: T1, rat calcitonin receptor (rat, UniProt P32214 25-516); experiment: SPA competition with 125I-calcitonin, membranes of BHK cells with rat calcitonin receptor (Assay VIII)
T1 construct: whole, on cells; also called rCTR; rat calcitonin (a) receptor
T1 sequence (looked up): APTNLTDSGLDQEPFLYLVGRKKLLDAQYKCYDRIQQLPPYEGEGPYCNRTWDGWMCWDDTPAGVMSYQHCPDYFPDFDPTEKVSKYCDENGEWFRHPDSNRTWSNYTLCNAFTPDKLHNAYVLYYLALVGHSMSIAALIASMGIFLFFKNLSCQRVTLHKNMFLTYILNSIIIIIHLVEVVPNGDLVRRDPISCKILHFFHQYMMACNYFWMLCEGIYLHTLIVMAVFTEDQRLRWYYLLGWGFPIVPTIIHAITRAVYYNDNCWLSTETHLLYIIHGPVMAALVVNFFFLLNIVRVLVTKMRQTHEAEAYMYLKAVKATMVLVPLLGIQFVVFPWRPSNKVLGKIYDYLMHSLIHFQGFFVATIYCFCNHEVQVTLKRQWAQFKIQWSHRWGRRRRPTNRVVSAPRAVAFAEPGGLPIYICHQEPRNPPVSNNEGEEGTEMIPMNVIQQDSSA

[2] = target: T2, rat amylin receptor (rat calcitonin receptor + rat RAMP 3) (rat, UniProt P32214 25-516; Q9JJ73 23-147); experiment: SPA competition with 125I-rat amylin, membranes of BHK cells with rat calcitonin receptor + rat RAMP3 (Assay VI)
T2 construct: whole, on cells; also called rAmylin-R; rat amylin 3(a) receptor
T2 sequence (looked up) 1: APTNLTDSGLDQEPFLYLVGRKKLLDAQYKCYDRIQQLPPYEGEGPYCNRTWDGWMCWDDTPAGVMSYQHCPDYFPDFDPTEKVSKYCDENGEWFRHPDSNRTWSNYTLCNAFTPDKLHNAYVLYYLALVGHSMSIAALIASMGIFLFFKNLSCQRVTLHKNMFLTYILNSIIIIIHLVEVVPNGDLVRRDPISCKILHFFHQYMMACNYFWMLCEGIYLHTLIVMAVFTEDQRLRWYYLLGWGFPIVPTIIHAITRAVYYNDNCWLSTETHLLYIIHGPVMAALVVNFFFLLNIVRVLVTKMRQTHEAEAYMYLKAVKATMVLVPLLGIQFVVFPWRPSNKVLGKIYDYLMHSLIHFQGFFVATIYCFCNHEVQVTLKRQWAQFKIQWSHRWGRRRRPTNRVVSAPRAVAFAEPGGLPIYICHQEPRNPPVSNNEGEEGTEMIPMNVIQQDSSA
T2 sequence (looked up) 2: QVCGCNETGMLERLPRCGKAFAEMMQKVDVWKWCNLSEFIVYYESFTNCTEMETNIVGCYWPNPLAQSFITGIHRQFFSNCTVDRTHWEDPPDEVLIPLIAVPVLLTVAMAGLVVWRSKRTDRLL

[3] = target: T3, human amylin receptor (amylin 3(a) receptor: human calcitonin receptor co-expressed with RAMP-3) (human, UniProt P30988 25-474; O60896 24-148, limits assumed); experiment: cell-based or functional assay
T3 sequence (looked up) 1: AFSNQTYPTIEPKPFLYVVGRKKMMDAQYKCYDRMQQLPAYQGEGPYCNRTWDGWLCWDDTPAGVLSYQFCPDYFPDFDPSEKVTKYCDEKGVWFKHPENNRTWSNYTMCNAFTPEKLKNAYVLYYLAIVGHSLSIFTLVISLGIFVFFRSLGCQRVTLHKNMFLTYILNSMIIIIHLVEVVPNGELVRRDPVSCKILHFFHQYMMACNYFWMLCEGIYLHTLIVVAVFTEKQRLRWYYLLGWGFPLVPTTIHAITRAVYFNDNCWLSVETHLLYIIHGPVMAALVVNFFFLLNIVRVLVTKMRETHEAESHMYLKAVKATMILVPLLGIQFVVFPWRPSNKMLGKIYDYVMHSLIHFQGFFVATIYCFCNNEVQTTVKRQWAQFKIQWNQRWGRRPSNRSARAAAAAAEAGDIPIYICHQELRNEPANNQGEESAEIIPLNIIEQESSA
T3 sequence (looked up) 2: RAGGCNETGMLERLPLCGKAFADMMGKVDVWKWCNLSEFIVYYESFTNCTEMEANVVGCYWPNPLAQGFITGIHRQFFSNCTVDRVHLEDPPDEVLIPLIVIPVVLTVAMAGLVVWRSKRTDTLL

[4] = target: T4, human calcitonin receptor (human, UniProt P30988 25-474); experiment: cell-based or functional assay
T4 sequence (looked up): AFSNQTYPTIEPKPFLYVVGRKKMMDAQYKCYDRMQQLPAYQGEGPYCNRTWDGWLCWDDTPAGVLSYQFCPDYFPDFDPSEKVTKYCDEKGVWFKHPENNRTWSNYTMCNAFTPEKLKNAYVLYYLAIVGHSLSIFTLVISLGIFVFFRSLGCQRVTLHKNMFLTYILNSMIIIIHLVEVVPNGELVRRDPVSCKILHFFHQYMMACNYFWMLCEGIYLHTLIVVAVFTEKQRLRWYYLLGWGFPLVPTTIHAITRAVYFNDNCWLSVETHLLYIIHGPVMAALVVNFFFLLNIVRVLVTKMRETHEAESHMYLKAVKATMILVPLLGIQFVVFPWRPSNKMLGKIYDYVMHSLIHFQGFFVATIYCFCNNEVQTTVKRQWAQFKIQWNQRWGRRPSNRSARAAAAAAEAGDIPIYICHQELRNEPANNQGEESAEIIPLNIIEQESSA

Row | Binder | IC50 [1] [nM] | IC50 [2] [nM] | Ratio hCT/hAmylin funct. [3] | hAmylin-R funct. EC50 [3] [nM] | hCTR funct. EC50 [4] [nM]
1 | K([γGlu-γGlu-C20 diacid])CNTATCATQRLADFLRHSSPNFGAIPSSTNVGSRTY-NH2 (disulfide 2-7; N-terminus assumed; SMILES CC[C@H](C)[C@H](NC(=O)[C@H](C)NC(=O)CNC(=O)[C@H](Cc1ccccc1)NC(=O)[C@H](CC(N)=O)NC(=O)[C@@H]1CCCN1C(=O)[C@H](CO)NC(=O)[C@H](CO)NC(=O)[C@H](Cc1c[nH]cn1)NC(=O)[C@H](CCCNC(=N)N)NC(=O)[C@H](CC(C)C)NC(=O)[C@H](Cc1ccccc1)NC(=O)[C@H](CC(=O)O)NC(=O)[C@H](C)NC(=O)[C@H](CC(C)C)NC(=O)[C@H](CCCNC(=N)N)NC(=O)[C@H](CCC(N)=O)NC(=O)[C@@H](NC(=O)[C@H](C)NC(=O)[C@@H]1CSSC[C@H](NC(=O)[C@@H](N)CCCCNC(=O)CC[C@H](NC(=O)CC[C@H](NC(=O)CCCCCCCCCCCCCCCCCCC(=O)O)C(=O)O)C(=O)O)C(=O)N[C@@H](CC(N)=O)C(=O)N[C@@H]([C@@H](C)O)C(=O)N[C@@H](C)C(=O)N[C@@H]([C@@H](C)O)C(=O)N1)[C@@H](C)O)C(=O)N1CCC[C@H]1C(=O)N[C@@H](CO)C(=O)N[C@@H](CO)C(=O)N[C@H](C(=O)N[C@@H](CC(N)=O)C(=O)N[C@H](C(=O)NCC(=O)N[C@@H](CO)C(=O)N[C@@H](CCCNC(=N)N)C(=O)N[C@H](C(=O)N[C@@H](Cc1ccc(O)cc1)C(N)=O)[C@@H](C)O)C(C)C)[C@@H](C)O, synthetic analogue of human amylin; also called compound 52) | 159 | 0.335 | – | – | –
2 | K([γGlu-γGlu-C20 diacid])CNTATCATQRLAHFLRHSSPNFGAIPSSTNVGSNTY-NH2 (disulfide 2-7; N-terminus assumed; SMILES CC[C@H](C)[C@H](NC(=O)[C@H](C)NC(=O)CNC(=O)[C@H](Cc1ccccc1)NC(=O)[C@H](CC(N)=O)NC(=O)[C@@H]1CCCN1C(=O)[C@H](CO)NC(=O)[C@H](CO)NC(=O)[C@H](Cc1c[nH]cn1)NC(=O)[C@H](CCCNC(=N)N)NC(=O)[C@H](CC(C)C)NC(=O)[C@H](Cc1ccccc1)NC(=O)[C@H](Cc1c[nH]cn1)NC(=O)[C@H](C)NC(=O)[C@H](CC(C)C)NC(=O)[C@H](CCCNC(=N)N)NC(=O)[C@H](CCC(N)=O)NC(=O)[C@@H](NC(=O)[C@H](C)NC(=O)[C@@H]1CSSC[C@H](NC(=O)[C@@H](N)CCCCNC(=O)CC[C@H](NC(=O)CC[C@H](NC(=O)CCCCCCCCCCCCCCCCCCC(=O)O)C(=O)O)C(=O)O)C(=O)N[C@@H](CC(N)=O)C(=O)N[C@@H]([C@@H](C)O)C(=O)N[C@@H](C)C(=O)N[C@@H]([C@@H](C)O)C(=O)N1)[C@@H](C)O)C(=O)N1CCC[C@H]1C(=O)N[C@@H](CO)C(=O)N[C@@H](CO)C(=O)N[C@H](C(=O)N[C@@H](CC(N)=O)C(=O)N[C@H](C(=O)NCC(=O)N[C@@H](CO)C(=O)N[C@@H](CC(N)=O)C(=O)N[C@H](C(=O)N[C@@H](Cc1ccc(O)cc1)C(N)=O)[C@@H](C)O)C(C)C)[C@@H](C)O, also called compound 92) | – | – | 28 | 0.085 | 2.38
